Key:
[1] = biological target: T1, soluble human OSMR (Oncostatin M receptor) (human, UniProt Q99650 28-740); assay: SPR (SensiQ), OSM-M2 immobilised, soluble OSMR injected (150nM, 100nM, 50nM, 25nM, 10nM, 5nM)
T1 construct: extracellular domain; Bought; also called soluble OSMR
T1 sequence (looked up): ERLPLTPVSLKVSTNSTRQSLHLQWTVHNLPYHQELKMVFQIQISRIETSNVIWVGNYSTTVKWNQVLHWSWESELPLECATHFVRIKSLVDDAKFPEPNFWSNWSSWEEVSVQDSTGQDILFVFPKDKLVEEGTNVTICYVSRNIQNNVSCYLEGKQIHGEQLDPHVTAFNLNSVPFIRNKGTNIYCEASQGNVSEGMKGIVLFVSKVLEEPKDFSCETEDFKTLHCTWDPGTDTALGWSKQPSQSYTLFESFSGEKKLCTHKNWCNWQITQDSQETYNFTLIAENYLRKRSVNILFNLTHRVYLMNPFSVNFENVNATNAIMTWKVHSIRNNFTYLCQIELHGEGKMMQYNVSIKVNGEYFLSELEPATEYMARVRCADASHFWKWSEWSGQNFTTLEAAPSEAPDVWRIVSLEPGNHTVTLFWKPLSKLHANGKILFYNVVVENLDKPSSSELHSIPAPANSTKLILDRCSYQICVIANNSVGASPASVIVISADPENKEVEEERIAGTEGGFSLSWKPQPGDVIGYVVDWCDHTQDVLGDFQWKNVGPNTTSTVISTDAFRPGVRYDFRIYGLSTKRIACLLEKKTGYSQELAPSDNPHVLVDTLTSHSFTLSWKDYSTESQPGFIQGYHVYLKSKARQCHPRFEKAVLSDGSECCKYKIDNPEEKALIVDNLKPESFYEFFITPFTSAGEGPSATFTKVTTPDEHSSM
Procedure: (§1) Surface Plasmon Resonance (SPR): Kinetic parameters of the interactions between receptor domains and the cytokines LIF, OSM-WT, OSM-M1 or OSM-M2 were analyzed by SPR using the SENSIQ® system (ICX Technologies, Oklahoma City, Okla.) as described by the manufacturer protocol. Briefly, a carboxyl sensor with two channels was installed in SENSIQ® and allowed to thermally equilibrate for about 15 minutes. The channels were initially cleaned with a 3 minute injection of 0.1 M HCl. An activation solution of 2 mM 1-Ethyl-3-[3-dimethylaminopropyl]carbodiimide hydrochloride (EDC) and 0.5 mM N-hydroxysulfo succinimide (NHS) was prepared in deionized water immediately before injection. Activation solution was injected over both channels for approximately 3 minutes followed by a 10 minute injection of 50 μg/mL cytokine (LIF, OSM-WT, OSM-M1 or OSM-M2) in 10 mM acetate buffer, pH 5.0, over channel 1. […] Unreacted NHS esters were capped with a 3 minute injection of 1 M ethanolamine, pH 8.0, over both channels. […] A concentration series of soluble LIFR (# 249-LR-050/CF, R&D Systems, Minneapolis, Minn.), soluble OSMR (# 4389-OR-50, R&D Systems, Minneapolis, Minn.) or soluble gp130 (# 228-GP-050/CF, R&D Systems, Minneapolis, Minn.) in running buffer (10 mM HEPES pH 7.4, 150 mM NaCl, 3.4 mM EDTA, 0.005% Tween-20) were injected over both channels at a flow rate of 25 μl/min. […]

[2] = biological target: T1, soluble human OSMR (Oncostatin M …); assay: SPR (SensiQ), OSM-M1 immobilised, soluble OSMR injected (150nM, 100nM, 50nM, 25nM, 10nM, 5nM)
Procedure: as §1

[3] = biological target: T1, soluble human OSMR (Oncostatin M …); assay: SPR (SensiQ), OSM-WT immobilised, soluble OSMR injected (150nM, 100nM, 50nM, 25nM, 10nM, 5nM)
Procedure: as §1

[4] = biological target: T1, soluble human OSMR (Oncostatin M …); assay: SPR (SensiQ), LIF immobilised, soluble OSMR injected (150nM, 100nM, 50nM, 25nM, 10nM, 5nM)
Procedure: as §1

B1: OSM-M2 (OSM with BC loop truncated from 12 to 4 amino acids) (ligand)
chain: AAIGSCSKEYRVLLGQLQKQTDLMQDTSRLLDPYIRIQGLDVPKLREHCRERPGAFPSEETLRGLGRRGFLQTLNATLGCVLHRLADLEQRLGGGNIEDLEKLQMARPNILGLRNNIYCMAQLLDNSDTAEPTKAGAGASQPPTPTPASDAFQRKLEGCRFLHGYHRFMHSVGRVFSKWGESPN
notes: Made from the 'AGA' modified OSM template; lacks the thrombin site; not shown: N-terminal FLAG tag left after thrombin removal of GST
binding result [1]: no binding (tested: 150 nM)

B2: OSM-M1 (OSM with BC loop truncated from 12 to 7 amino acids) (ligand)
chain: AAIGSCSKEYRVLLGQLQKQTDLMQDTSRLLDPYIRIQGLDVPKLREHCRERPGAFPSEETLRGLGRRGFLQTLNATLGCVLHRLADLEQRLGAPSGLNIEDLEKLQMARPNILGLRNNIYCMAQLLDNSDTAEPTKAGAGASQPPTPTPASDAFQRKLEGCRFLHGYHRFMHSVGRVFSKWGESPN
notes: as for B1
binding result [2]: no binding (tested: 150 nM)

B3: OSM-WT ('AGA' modified human Oncostatin M, referred to as wild-type OSM) (ligand)
chain: AAIGSCSKEYRVLLGQLQKQTDLMQDTSRLLDPYIRIQGLDVPKLREHCRERPGAFPSEETLRGLGRRGFLQTLNATLGCVLHRLADLEQRLPKAQDLERSGLNIEDLEKLQMARPNILGLRNNIYCMAQLLDNSDTAEPTKAGAGASQPPTPTPASDAFQRKLEGCRFLHGYHRFMHSVGRVFSKWGESPN
notes: also called hOSM with AGA modification; not shown: N-terminal FLAG tag left after thrombin removal of GST
binding result [3]: no binding (tested: 150 nM)

B4: human leukemia inhibitory factor (LIF) (ligand)
chain: not shown
notes: Purified recombinant protein; also called hLIF
binding result [4]: no binding (tested: 150 nM)
